Among the data in paper PMC12084551 are stoichiometry N and Kd values, retold here.

The first assay concerns the target full-length GAS2 (GAS2-FL (1–314)) (mouse) (UniProt P11862). The assay is described as follows: SEC; Superdex 75 HR 10/300; 30 mM Tris-HCl pH 8.0, 300 mM KCl, 100 μM ZnCl2, 0.1% β-ME; molecular weight from a calibration with BSA, carbonic anhydrase and cytochrome c.
The substance “full-length GAS2 (GAS2-FL (1–314)) (from UniProt P11862 1-314) (natural protein)” returned a stoichiometry N of 2.

The target in the next assay is microtubules (MTs) polymerized from porcine brain tubulin (pig (porcine brains)) (UniProt Q2XVP4). The assay is described as follows: co-sedimentation; GAS2 proteins at different concentrations with Taxol-stabilized MTs in BRB80 with 1 mM GTP, room temperature, 20 min; 186,000 × g, 10 min, 25 °C; SDS-PAGE, one site-specific binding fit.
The substance “GAS2-GAR G255E (from UniProt P11862 198-314) (domain or fragment)” came in with a Kd of 9.6 µM. This counts as single-digit micromolar. In turn, “GAS2-GAR W257E (from UniProt P11862 198-314) (domain or fragment)” gave a Kd of 27 µM. Same read-out and setting: then “GAS2-GAR R252E (from UniProt P11862 198-314) (domain or fragment)”, with 47 µM; and “GAS2-GAR G255A (from UniProt P11862 198-314) (domain or fragment)”, with 2.69 µM. For “GAS2-GAR domain (residues 198–314) (from UniProt P11862 198-314) (domain or fragment)”, the Kd was found to be 0.69 µM. Still for that read-out and setting: then “GAS2-GAR K266E (from UniProt P11862 198-314) (domain or fragment)”, with 10.6 µM; and “GAS2-GAR R242E (from UniProt P11862 198-314) (domain or fragment)”, with 5 µM.
